Experimental data from patent US8114832 (UMC UTRECHT HOLDING B V, dated 2012).
Ends that are not written are not given here.

T1: recombinant human β2-glycoprotein I (human, UniProt P02749 20-345)
T1 construct: Said to hold more cross-β structure conformation than plasma β2GPI; also called recombinant β2GPI; rec. β2GPI
T1 sequence (looked up): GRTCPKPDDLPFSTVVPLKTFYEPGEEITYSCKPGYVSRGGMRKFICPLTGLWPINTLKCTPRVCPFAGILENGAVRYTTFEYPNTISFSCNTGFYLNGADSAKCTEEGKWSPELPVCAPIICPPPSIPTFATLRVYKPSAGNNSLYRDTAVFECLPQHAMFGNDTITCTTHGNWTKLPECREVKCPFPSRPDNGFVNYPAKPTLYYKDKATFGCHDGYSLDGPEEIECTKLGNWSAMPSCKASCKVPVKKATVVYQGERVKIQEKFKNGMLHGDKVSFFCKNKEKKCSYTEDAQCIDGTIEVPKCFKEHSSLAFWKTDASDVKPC


How the values were obtained:
[1] = molecular target: T1, recombinant human β2-glycoprotein I; assay: SPR (Biacore), chemically synthesized HGFA F immobilized (190 RU)
Method: The running buffer during immobilization was 10 mM HEPES pH 7.4, 140 mM NaCl. Buffers were filtrated on a 0.22 μm filter (white GSWP, 47 mm, Millipore) and degassed at room temperature.
Regeneration buffer was running buffer supplemented with 1 M NaCl.

[2] = molecular target: T1, recombinant human β2-glycoprotein I; assay: SPR (Biacore), chemically synthesized tPA F immobilized (395 RU)
Method: Then, the proteins were covalently coupled to the activated dextran surface. Remaining activated groups in each of the four flow channels were blocked by injection of 35 μl of 1 M ethanolamine hydrochloride pH 8.5. EDC, NHS and ethanolamine hydrochloride were obtained from Biacore. […] The running buffer during immobilization was 10 mM HEPES pH 7.4, 140 mM NaCl. Buffers were filtrated on a 0.22 μm filter (white GSWP, 47 mm, Millipore) and degassed at room temperature.

| Binder | binding result [1] | binding result [2] |
| --- | --- | --- |
| EKCFDETRYEYLEGGDRWARVRQGHVEQCECFGGRTWCEGT (other, UniProt Q04756 200-240, looked up, cysteine pairing not given here; also: acetylated lysine, position not given here, domain: F domain; Made from two peptides by native chemical ligation) [chemically synthesized HGFA F domain] | no binding (tested: 0-300 mM (so in the source)) | – |
| chemically synthesized tPA F domain (other, cysteine pairing not given here; also: C-terminal lysine acetylated or biotinylated, domain: F domain; Made from two peptides by native chemical ligation) SYQVICRDEKTQMIYQQHQSWLRPVLRSNRVEYCWCNSGRAQCHSVPVKSK | – | no binding (tested: 0-300 mM (so in the source)) |
